Assay results as given in patent publication US20050277575A1 (published 2005).

Target: T1, S100A4 protein (recombinant human, GST tag removed) (human)
T1 chain: YVERW
Assay: cell-based or functional assay

Q: Ac-AGLREVYGASLASYMERW-NH2 [peptide SEQ ID NO 6, Ac-AGLREVYGASLASYMERW-amide] was tested. Which “IC50 for inhibition of the accelerating effect of S100A4 on t-PA-dependent conversion of plasminogen to plasmin” value did it give?
A: 6 µM
